Patent publication US20210260212A1 (MAGENTA THERAPEUTICS, published 2021)

Target: T1, human CD2 on the surface of cells (MOLT-4 human T lymphoblast cells); primary human T-cells; primary human NK … (human, UniProt P06729 25-351)
T1 sequence: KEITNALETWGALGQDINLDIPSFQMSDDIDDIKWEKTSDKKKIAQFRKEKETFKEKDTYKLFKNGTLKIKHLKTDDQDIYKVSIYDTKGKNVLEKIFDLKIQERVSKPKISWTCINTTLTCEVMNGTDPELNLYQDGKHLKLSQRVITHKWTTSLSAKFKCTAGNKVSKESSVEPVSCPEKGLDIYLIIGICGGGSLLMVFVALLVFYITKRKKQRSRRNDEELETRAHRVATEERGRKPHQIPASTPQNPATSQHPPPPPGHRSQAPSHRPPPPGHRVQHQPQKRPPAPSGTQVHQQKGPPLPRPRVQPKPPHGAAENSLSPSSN
Experiment: cell-based or functional assay

B1: anti-CD2-amanitin ADC: RPA 2.10 conjugated to amanitin with a cleavable linker, interchain, average drug-to-antibody ratio of 6 (other)
heavy: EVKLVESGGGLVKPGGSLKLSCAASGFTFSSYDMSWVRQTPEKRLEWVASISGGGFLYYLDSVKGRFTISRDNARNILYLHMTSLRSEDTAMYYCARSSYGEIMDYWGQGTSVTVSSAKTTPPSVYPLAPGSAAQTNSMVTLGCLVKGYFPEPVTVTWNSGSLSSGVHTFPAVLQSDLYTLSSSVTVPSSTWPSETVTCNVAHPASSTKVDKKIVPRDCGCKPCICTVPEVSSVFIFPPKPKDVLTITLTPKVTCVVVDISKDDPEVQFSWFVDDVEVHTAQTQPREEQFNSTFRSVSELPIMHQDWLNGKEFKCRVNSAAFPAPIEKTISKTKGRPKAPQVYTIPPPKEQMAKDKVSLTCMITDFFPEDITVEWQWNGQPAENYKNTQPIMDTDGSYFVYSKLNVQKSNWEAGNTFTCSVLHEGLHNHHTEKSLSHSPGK
light: DILLTQSPAILSVSPGERVSFSCRASQRIGTSIHWYQQRTTGSPRLLIKYASESISGIPSRFSGSGSGTDFTLSINSVESEDVADYYCQQSHGWPFTFGGGTKLEIERADAAPTVSIFPPSSEQLTSGGASVVCFLNNFYPKDINVKWKIDGSERQNGVLNSWTDQDSKDSTYSMSSTLTLTKDEYERHNSYTCEATHKTSTSPIVKSFNRNEC
viability of primary human NK cells after 4 days (CellTiter-Glo), in vitro NK-cell killing assay, IC50: 5.2 pM
